In paper PMC7219890 (2020):

T1: Mical-1 (Homo sapiens, UniProt Q8TDZ2)
T1 chain: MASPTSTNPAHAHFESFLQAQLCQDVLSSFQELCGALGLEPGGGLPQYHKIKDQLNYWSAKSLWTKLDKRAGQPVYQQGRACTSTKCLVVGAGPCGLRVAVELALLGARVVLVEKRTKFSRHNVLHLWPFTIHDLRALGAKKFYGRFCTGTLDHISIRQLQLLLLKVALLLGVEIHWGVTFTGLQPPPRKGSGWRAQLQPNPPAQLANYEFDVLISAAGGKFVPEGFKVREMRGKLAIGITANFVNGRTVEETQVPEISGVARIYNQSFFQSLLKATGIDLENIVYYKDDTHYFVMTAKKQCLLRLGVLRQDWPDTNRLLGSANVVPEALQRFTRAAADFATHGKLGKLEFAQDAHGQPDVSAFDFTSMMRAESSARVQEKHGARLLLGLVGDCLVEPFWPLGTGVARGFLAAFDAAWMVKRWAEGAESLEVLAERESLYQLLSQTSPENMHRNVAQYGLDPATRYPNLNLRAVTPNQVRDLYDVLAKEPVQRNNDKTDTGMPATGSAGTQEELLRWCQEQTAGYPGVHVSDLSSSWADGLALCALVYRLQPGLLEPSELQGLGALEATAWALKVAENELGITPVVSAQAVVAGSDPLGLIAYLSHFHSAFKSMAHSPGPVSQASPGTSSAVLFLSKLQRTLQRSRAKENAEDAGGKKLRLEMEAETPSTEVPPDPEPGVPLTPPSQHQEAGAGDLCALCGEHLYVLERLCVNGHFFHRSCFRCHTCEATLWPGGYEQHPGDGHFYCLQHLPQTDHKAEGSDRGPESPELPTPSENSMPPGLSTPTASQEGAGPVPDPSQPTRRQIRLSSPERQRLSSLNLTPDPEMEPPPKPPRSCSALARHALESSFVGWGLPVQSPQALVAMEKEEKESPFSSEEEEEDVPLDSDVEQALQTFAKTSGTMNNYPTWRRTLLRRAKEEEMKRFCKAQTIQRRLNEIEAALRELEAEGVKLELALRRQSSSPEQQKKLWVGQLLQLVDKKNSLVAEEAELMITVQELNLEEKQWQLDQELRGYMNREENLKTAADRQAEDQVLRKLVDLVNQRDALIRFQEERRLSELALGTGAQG


Target: T1, Mical-1
Experiment: ITC

Binder	Kd [nM]
Rab8A 6-176 (protein, GppNHp-bound, C-terminal His6 tag on Rab8A) DYLFKLLLIGDSGVGKTCVLFRFSEDAFNSTFISTIGIDFKIRTIELDGKRIKLQIWDTAGQERFRTITTAYYRGAMGIMLVYDITNEKSFDNIRNWIRNIEEHASADVEKMILGNKCDVNDKRQVSKERGEKLALDYGIKFMETSAKANINVENAFFTLARDIKAKMDKK	923
Rab8A 6-176 (protein, phosphoSer111 Rab8A, GppNHp-bound, C-terminal His6 tag on Rab8A) DYLFKLLLIGDSGVGKTCVLFRFSEDAFNSTFISTIGIDFKIRTIELDGKRIKLQIWDTAGQERFRTITTAYYRGAMGIMLVYDITNEKSFDNIRNWIRNIEEHASADVEKMILGNKCDVNDKRQVSKERGEKLALDYGIKFMETSAKANINVENAFFTLARDIKAKMDKK	913
